# According to US20020119521A1:
# T1: B42AD:MmRXR-DEF fusion (Mus musculus)
# T1 sequence: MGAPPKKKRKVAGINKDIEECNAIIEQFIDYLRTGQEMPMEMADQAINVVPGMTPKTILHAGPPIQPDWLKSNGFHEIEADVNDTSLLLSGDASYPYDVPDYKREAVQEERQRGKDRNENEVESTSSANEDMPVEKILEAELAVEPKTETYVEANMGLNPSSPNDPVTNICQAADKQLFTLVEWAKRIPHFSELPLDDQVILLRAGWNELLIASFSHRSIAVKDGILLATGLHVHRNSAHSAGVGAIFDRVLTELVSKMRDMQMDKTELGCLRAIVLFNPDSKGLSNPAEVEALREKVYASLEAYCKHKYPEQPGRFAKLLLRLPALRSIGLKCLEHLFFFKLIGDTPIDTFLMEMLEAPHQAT
# B1: LexA:CfEcRDEF fusion (receptor)
# chain: MKALTARQQEVFDLIRDHISQTGMPPTRAEIAQRLGFRSPNAAEEHLKALARKGVIEIVSGASRGIRLLQEEEEGLPLVGRVAAGEPLLAQQHIEGHYQVDPSLFKPNADFLLRVSGMSMKDIGIMDGDLLAVHKTQDVRNGQVVVARIDDEVTVKRLKKQGNKVELLPENSEFKPIVVDLRQQSFTIEGLAVGVIRNGDWLPECVVPETQCAMKRKEKKAQKEKDKLPVSTTTVDDHMPPIMQCEPPPPEAARIHEVVPRFLSDKLLETNRQKNIPQLTANQQFLIARLIWYQDGYEQPSDEDLKRITQTWQQADDENEESDTPFRQITEMTILTVQLIVEFAKGLPGFAKISQPDQITLLKACSSEVMMLRVARRYDAASDSVLFANNQAYTRDNYRKAGMAYVIEDLLHFCRCMYSMALDNIHYALLTAVVIFSDRPGLEQPQLVEEIQRYYLNTLRIYILNQLSGSARSSVIYGKILSILSELRTLGMQNSNMCISLKLKNRKLPPFLEEIWDVADMSHTQPPPILESPTNL
# Experiments:
# Test in all cases: cell-based or functional assay
# [1] = biological target: Full length MmRXR (mouse Mus musculus RXR alpha) (Mus musculus) (UniProt P28700)
# [2] = biological target: VP16AD-CfUSPDEF chimeric polypeptide (Choristoneura fumiferana)
# [3] = biological target: VP16AD-MmRXRDEF chimeric polypeptide (Mus musculus)
# [4] = biological target: VP16AD-CfEcRCDEF chimeric polypeptide (Choristoneura fumiferana)
# [5] = biological target: VP16AD-DmEcRCDEF chimeric polypeptide (Drosophila melanogaster)
# [6] = biological target: T1, B42AD:MmRXR-DEF fusion (Mus musculus)
molecule,measurement,setting,value
"Drosophila melanogaster EcR with a modified DNABD fused to VP16AD (DmVgRXR system, Invitrogen) (receptor)","Mean Fold Activation Through N-(2-ethyl-3-methoxybenzoyl)-N'-(3,5-dimethylbenzoyl)-N'-t-butylhydrazine; pIND(SP1)LacZ reporter, 3T3 cells",[1],21 fold
same,"Mean Fold Activation Through N-(2-ethyl-3-methoxybenzoyl)-N'-(3,5-dimethylbenzoyl)-N'-t-butylhydrazine; pIND(SP1)LacZ reporter, 293 cells",[1],21 fold
same,"Mean Fold Activation with 50 µM N-(2-ethyl-3-methoxybenzoyl)-N'-(3,5-dimethylbenzoyl)-N'-t-butylhydrazine; pIND(SP1)LacZ reporter, CHO cells",[1],14 fold
Gal4DBD-CfEcRDEF chimeric polypeptide (receptor),"Mean Fold Activation Through N-(2-ethyl-3-methoxybenzoyl)-N'-(3,5-dimethylbenzoyl)-N'-t-butylhydrazine; pGAL4RELuc reporter, 3T3 cells",[2],2 fold
same,"Mean Fold Activation Through N-(2-ethyl-3-methoxybenzoyl)-N'-(3,5-dimethylbenzoyl)-N'-t-butylhydrazine; pGAL4RELuc reporter, 293 cells",[2],2 fold
same,"Mean Fold Activation with 50 µM N-(2-ethyl-3-methoxybenzoyl)-N'-(3,5-dimethylbenzoyl)-N'-t-butylhydrazine; pGAL4RELuc reporter, CHO cells",[2],2 fold
same,"Mean Fold Activation Through N-(2-ethyl-3-methoxybenzoyl)-N'-(3,5-dimethylbenzoyl)-N'-t-butylhydrazine; pGAL4RELuc reporter, 3T3 cells",[3],1120 fold
same,"Mean Fold Activation Through N-(2-ethyl-3-methoxybenzoyl)-N'-(3,5-dimethylbenzoyl)-N'-t-butylhydrazine; pGAL4RELuc reporter, 293 cells",[3],125 fold
same,"Mean Fold Activation with 50 µM N-(2-ethyl-3-methoxybenzoyl)-N'-(3,5-dimethylbenzoyl)-N'-t-butylhydrazine; pGAL4RELuc reporter, CHO cells",[3],267 fold
same,Mean Fold Induction at 1.0 µM Concentration of Muristerone A; switch 1.1 in 3T3 cells,[3],1 fold
same,"Mean Fold Induction at 1.0 µM Concentration of N'-(3,4-(1,2-ethylenedioxy)-2-methylbenzoyl)-N'-(3,5-dimethylbenzoyl)-N'-tert-butylhydrazine; switch 1.1 in 3T3 cells",[3],601 fold
same,"Mean Fold Induction at 1.0 µM Concentration of N-(2-ethyl-3-methoxybenzoyl)-N'-(3,5-dimethylbenzoyl)-N'-tert-butylhydrazine; switch 1.1 in 3T3 cells",[3],116 fold
same,Mean Fold Induction at 1.0 µM Concentration of Ponasterone A; switch 1.1 in 3T3 cells,[3],1 fold
same,ligand concentration at which transactivation was initiated (non-steroid ligands),[3],< 1 µM
same,ligand concentration at which transactivation was initiated (steroid ligands),[3],50 µM
Gal4DBD-CfUSPDEF chimeric polypeptide (receptor),"Mean Fold Activation Through N-(2-ethyl-3-methoxybenzoyl)-N'-(3,5-dimethylbenzoyl)-N'-t-butylhydrazine; pGAL4RELuc reporter, 3T3 cells",[4],3 fold
same,"Mean Fold Activation Through N-(2-ethyl-3-methoxybenzoyl)-N'-(3,5-dimethylbenzoyl)-N'-t-butylhydrazine; pGAL4RELuc reporter, 293 cells",[4],2 fold
same,"Mean Fold Activation with 50 µM N-(2-ethyl-3-methoxybenzoyl)-N'-(3,5-dimethylbenzoyl)-N'-t-butylhydrazine; pGAL4RELuc reporter, CHO cells",[4],2 fold
Gal4DBD-MmRXRDEF chimeric polypeptide (receptor),"Mean Fold Activation Through N-(2-ethyl-3-methoxybenzoyl)-N'-(3,5-dimethylbenzoyl)-N'-t-butylhydrazine; pGAL4RELuc reporter, 3T3 cells",[4],47 fold
same,"Mean Fold Activation Through N-(2-ethyl-3-methoxybenzoyl)-N'-(3,5-dimethylbenzoyl)-N'-t-butylhydrazine; pGAL4RELuc reporter, 293 cells",[4],17 fold
same,"Mean Fold Activation with 50 µM N-(2-ethyl-3-methoxybenzoyl)-N'-(3,5-dimethylbenzoyl)-N'-t-butylhydrazine; pGAL4RELuc reporter, CHO cells",[4],85 fold
same,Mean Fold Induction at 1.0 µM Concentration of Muristerone A; switch 1.3 in 3T3 cells,[4],1 fold
same,"Mean Fold Induction at 1.0 µM Concentration of N'-(3,4-(1,2-ethylenedioxy)-2-methylbenzoyl)-N'-(3,5-dimethylbenzoyl)-N'-tert-butylhydrazine; switch 1.3 in 3T3 cells",[4],54 fold
same,"Mean Fold Induction at 1.0 µM Concentration of N-(2-ethyl-3-methoxybenzoyl)-N'-3,5-dimethylbenzoyl)-N'-tert-butylhydrazine; switch 1.3 in 3T3 cells",[4],71 fold
same,Mean Fold Induction at 1.0 µM Concentration of Ponasterone A; switch 1.3 in 3T3 cells,[4],1 fold
same,"Mean Fold Activation Through N-(2-ethyl-3-methoxybenzoyl)-N'-(3,5-dimethylbenzoyl)-N'-t-butylhydrazine; pGAL4RELuc reporter, 3T3 cells",[5],269 fold
same,"Mean Fold Activation Through N-(2-ethyl-3-methoxybenzoyl)-N'-(3,5-dimethylbenzoyl)-N'-t-butylhydrazine; pGAL4RELuc reporter, 293 cells",[5],3 fold
same,"Mean Fold Activation with 50 µM N-(2-ethyl-3-methoxybenzoyl)-N'-(3,5-dimethylbenzoyl)-N'-t-butylhydrazine; pGAL4RELuc reporter, CHO cells",[5],312 fold
"Truncated CfEcR comprising a partial A/B domain and the complete CDEF domains, fused to VP16AD (CfVgRXR) (receptor)","Mean Fold Activation Through N-(2-ethyl-3-methoxybenzoyl)-N'-(3,5-dimethylbenzoyl)-N'-t-butylhydrazine; pIND(SP1)LacZ reporter, 3T3 cells",[1],19 fold
same,"Mean Fold Activation Through N-(2-ethyl-3-methoxybenzoyl)-N'-(3,5-dimethylbenzoyl)-N'-t-butylhydrazine; pIND(SP1)LacZ reporter, 293 cells",[1],12 fold
same,"Mean Fold Activation with 50 µM N-(2-ethyl-3-methoxybenzoyl)-N'-(3,5-dimethylbenzoyl)-N'-t-butylhydrazine; pIND(SP1)LacZ reporter, CHO cells",[1],27 fold
B1,fold induction of the LacZ reporter in a yeast two-hybrid assay with GS-E,[6],1800 fold
